Target: T1, human Retinoblastoma-1 (RB) pocket domain (human, UniProt P06400 373-771)
T1 chain: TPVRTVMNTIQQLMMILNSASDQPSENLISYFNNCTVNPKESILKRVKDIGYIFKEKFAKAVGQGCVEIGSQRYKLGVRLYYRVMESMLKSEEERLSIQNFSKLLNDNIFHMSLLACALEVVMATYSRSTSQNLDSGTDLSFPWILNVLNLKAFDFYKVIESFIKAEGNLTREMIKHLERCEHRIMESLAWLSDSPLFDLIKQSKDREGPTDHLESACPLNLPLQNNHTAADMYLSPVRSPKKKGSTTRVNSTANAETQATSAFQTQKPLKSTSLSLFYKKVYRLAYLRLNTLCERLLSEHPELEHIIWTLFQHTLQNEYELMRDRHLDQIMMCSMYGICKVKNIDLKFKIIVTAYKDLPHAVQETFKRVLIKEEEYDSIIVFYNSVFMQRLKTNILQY
Experiment: SPR

B1: full-length E2F1, purified, recombinant (natural protein)
chain: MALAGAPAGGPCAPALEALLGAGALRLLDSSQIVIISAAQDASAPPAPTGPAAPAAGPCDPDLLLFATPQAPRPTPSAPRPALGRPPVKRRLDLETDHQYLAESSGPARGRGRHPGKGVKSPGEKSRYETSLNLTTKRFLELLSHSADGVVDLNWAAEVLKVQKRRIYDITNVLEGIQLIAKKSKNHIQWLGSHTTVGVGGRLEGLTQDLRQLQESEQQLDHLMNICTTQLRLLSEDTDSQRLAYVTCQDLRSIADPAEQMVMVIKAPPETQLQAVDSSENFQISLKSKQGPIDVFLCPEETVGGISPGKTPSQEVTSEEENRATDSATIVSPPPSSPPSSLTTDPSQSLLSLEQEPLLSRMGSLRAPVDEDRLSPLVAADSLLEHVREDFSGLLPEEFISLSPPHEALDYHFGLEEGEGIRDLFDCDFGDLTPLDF
Kd: 0.0331 µM

YIEEVFTPLVLKCKELK [LXCXE peptide derived from TpGcpE (TpMuguga_02g00667)]
Kd: 22.4 µM

From PMC7055300 (2020)
